This note sets out measurements from publication PMC9407945 (Science immunology, 2022).

To fix the notation:
B1: SW186 Fab (fragment antigen-binding region of SW186) (Fab, V domains shown)
VH: QVQLQQSGAELVKPGASVKISCKASGVAFSSYWMNWVKQRPGKGLEWIGQIYPGDGDTNYNGKFKGKATLTADKSSSTAYMQLSSLSSEDSAVYFCARGFIATVEETMDYWGQGTSVTVSS
VL: DIQMTQTTSSLSASLGDRVTISCRASQDISNYLNWYQQKPDGTVKLLIYYTSRLHSGVPSRFSGSGSGTDYSLTISNLEQEDIATYFCQQSHTLPWTFGGGTKLEIK
B2: humanized SW186 H1L2 (antibody, V domains shown)
VH: QVQLVQSGAEVKKPGSSVKVSCKASGVAFSSYWMNWVRQAPGQGLEWMGQIYPGDGDTNYNGKFKGRVTITADKSTSTAYMELSSLRSEDTAVYYCARGFIATVEETMDYWGQGTLVTVSS
VL: DIQMTQSPSSLSASVGDRVTITCRASQDISNYLNWYQQKPGKAPKLLIYYTSRLHSGVPSRFSGSGSGTDFTLTISSLQPEDFATYFCQQSHTLPWTFGGGTKLEIK
B3: humanized SW186 H2L1 (antibody, V domains shown)
VH: QVQLVQSGAEVKKPGSSVKVSCKASGVAFSSYWMNWVRQAPGQGLEWIGQIYPGDGDTNYNGKFKGRVTITADKSTSTAYMELSSLRSEDTAVYFCARGFIATVEETMDYWGQGTLVTVSS
VL: DIQMTQSPSSLSASVGDRVTITCRASQDISNYLNWYQQKPGKAPKLLIYYTSRLHSGVPSRFSGSGSGTDFTLTISSLQPEDFATYYCQQSHTLPWTFGGGTKLEIK
B4: humanized SW186 H2L4 (antibody, V domains shown)
VH: QVQLVQSGAEVKKPGSSVKVSCKASGVAFSSYWMNWVRQAPGQGLEWIGQIYPGDGDTNYNGKFKGRVTITADKSTSTAYMELSSLRSEDTAVYFCARGFIATVEETMDYWGQGTLVTVSS
VL: DIQMTQSPSSLSASVGDRVTITCRASQDISNYLNWYQQKPGKTVKLLIYYTSRLHSGVPSRFSGSGSGTDYTLTISSLQPEDFATYFCQQSHTLPWTFGGGTKLEIK
B5: humanized SW186 H2L2 (antibody, V domains shown)
VH: QVQLVQSGAEVKKPGSSVKVSCKASGVAFSSYWMNWVRQAPGQGLEWIGQIYPGDGDTNYNGKFKGRVTITADKSTSTAYMELSSLRSEDTAVYFCARGFIATVEETMDYWGQGTLVTVSS
VL: DIQMTQSPSSLSASVGDRVTITCRASQDISNYLNWYQQKPGKAPKLLIYYTSRLHSGVPSRFSGSGSGTDFTLTISSLQPEDFATYFCQQSHTLPWTFGGGTKLEIK
B6: humanized SW186 H2L3 (antibody, V domains shown)
VH: QVQLVQSGAEVKKPGSSVKVSCKASGVAFSSYWMNWVRQAPGQGLEWIGQIYPGDGDTNYNGKFKGRVTITADKSTSTAYMELSSLRSEDTAVYFCARGFIATVEETMDYWGQGTLVTVSS
VL: DIQMTQSPSSLSASVGDRVTITCRASQDISNYLNWYQQKPGKAPKLLIYYTSRLHSGVPSRFSGSGSGTDYTLTISSLQPEDFATYFCQQSHTLPWTFGGGTKLEIK
B7: humanized SW186 H1L3 (antibody, V domains shown)
VH: QVQLVQSGAEVKKPGSSVKVSCKASGVAFSSYWMNWVRQAPGQGLEWMGQIYPGDGDTNYNGKFKGRVTITADKSTSTAYMELSSLRSEDTAVYYCARGFIATVEETMDYWGQGTLVTVSS
VL: DIQMTQSPSSLSASVGDRVTITCRASQDISNYLNWYQQKPGKAPKLLIYYTSRLHSGVPSRFSGSGSGTDYTLTISSLQPEDFATYFCQQSHTLPWTFGGGTKLEIK
B8: humanized SW186 H1L4 (antibody, V domains shown)
VH: QVQLVQSGAEVKKPGSSVKVSCKASGVAFSSYWMNWVRQAPGQGLEWMGQIYPGDGDTNYNGKFKGRVTITADKSTSTAYMELSSLRSEDTAVYYCARGFIATVEETMDYWGQGTLVTVSS
VL: DIQMTQSPSSLSASVGDRVTITCRASQDISNYLNWYQQKPGKTVKLLIYYTSRLHSGVPSRFSGSGSGTDYTLTISSLQPEDFATYFCQQSHTLPWTFGGGTKLEIK
B9: humanized SW186 H3L1 (antibody, V domains shown)
VH: QVQLVQSGAEVKKPGSSVKVSCKASGVAFSSYWMNWVRQAPGQGLEWIGQIYPGDGDTNYNGKFKGRATITADKSTSTAYMELSSLRSEDTAVYFCARGFIATVEETMDYWGQGTLVTVSS
VL: DIQMTQSPSSLSASVGDRVTITCRASQDISNYLNWYQQKPGKAPKLLIYYTSRLHSGVPSRFSGSGSGTDFTLTISSLQPEDFATYYCQQSHTLPWTFGGGTKLEIK
B10: SW186 monoclonal antibody (murine-human chimeric, human IgG1 backbone) (antibody, V domains shown)
VH: QVQLQQSGAELVKPGASVKISCKASGVAFSSYWMNWVKQRPGKGLEWIGQIYPGDGDTNYNGKFKGKATLTADKSSSTAYMQLSSLSSEDSAVYFCARGFIATVEETMDYWGQGTSVTVSS
VL: DIQMTQTTSSLSASLGDRVTISCRASQDISNYLNWYQQKPDGTVKLLIYYTSRLHSGVPSRFSGSGSGTDYSLTISNLEQEDIATYFCQQSHTLPWTFGGGTKLEIK

As a reminder, the Kd is the concentration at which binding is half-saturated. Read a low Kd as higher affinity.

The first assay addresses T1, SARS-CoV-2 spike ectodomain (S-ecto), Wuhan-hu-1 strain, residues 1-1208 with 2P mutation (SARS-CoV-2, Wuhan-hu-1, UniProt P0DTC2, 2P mutation at residues 986 and 987). Kind of assay: BLI. The note with it: both partners purified.
In the case of B1, the Kd was around 1 nM.

The next assay addresses SARS-CoV-2 spike ectodomain (S-ecto), Wuhan-hu-1, 2P (SARS-CoV-2, Wuhan-hu-1, UniProt P0DTC2, 2P mutation at residues 986 and 987, biotinylated (EZ-link NHS-sulfo-LC-Biotin) for the BLI assay). Put plainly: BLI. As to conditions: both partners purified.
As to B2, the Kd is 26.2 nM.
B3 displayed a Kd of 18.1 nM.
The same measure, in the same setting: for B4 the value was 3.14 nM; for B5, 12.6 nM; for B6, 3.72 nM.
Same read-out and setting: for B7 the value was 4.37 nM.
Turning to B8, the Kd stood at 5.03 nM.
Same read-out and setting: for B9 the value was 6.69 nM.

The next assay concerns the target T1, SARS-CoV-2 spike ectodomain (S-ecto), …. Put plainly: cell-based or functional assay.
Conditions: not given
As to B10, the “neutralisation of infectious mNeonGreen SARS-CoV-2, WA1 strain, IC50” value is around 0.04 µg/mL.
